Here are results for 2 substances from patent US20150024459A1.

For test [1], the target named is IGF-1R on human cancer cell lines (human) (UniProt P08069). Description: 125I-IGF-1 binding to MCF-7L cells; antibody at 1000 ng/mL.
Test [2] has the same target. As to the kind of experiment: 125I-IGF-1 binding to MCF-7L cells; antibody at 100 ng/mL.
Test [3] shares this target. As to the kind of experiment: cell-based or functional assay.
In test [4] the target is IGF-1R and EGP-1 together on MCF-7, DU145 or ME-180 cells (human) (UniProt P08069). Description: flow cytometry (FACScan), MCF-7 cells; control.
The target is the same in test [5]. As to the kind of experiment: flow cytometry (FACScan), DU145 cells; control.
The target is the same in test [6]. As to the kind of experiment: flow cytometry (FACScan), ME-180 cells; control.

As for MAB391 (antibody), in test [1], the % binding of 125I-IGF-1 in the presence of the antibody came to 38%. The % binding of 125I-IGF-1 in the presence of the antibody in test [2] turned out to be 54%. In test [3], the maximum growth inhibition, 786-O cells, serum-free with IGF-1 100 ng/mL, MTS, antibody 8 nM came out at 34%; the maximum growth inhibition, ACHN cells, serum-free with IGF-1 100 ng/mL, MTS, antibody 200 nM worked out at 48%; the maximum growth inhibition, Caki-2 cells, serum-free with IGF-1 100 ng/mL, MTS, antibody 8 nM was 50%.
On to human IgG (antibody), for which the % Positive in test [4] stood at 2.34%; in test [5] it was 1.44%; in test [6], 1.37%. The MFI in test [4] is 1.84; in test [5], 2.21; in test [6], 1.8.
